The results in this text go back to article PMC10921949, “Multivalent coiled-coil interactions enable full-scale centrosome assembly and strength” (The Journal of Cell Biology, 2024).

Positions count from the first letter of the chain named.

The data set deals with the molecule itself. In words: mass photometry; 50 nM SPD-5(541–677) in PBS on a glass coverslip (TwoMP, Refeyn), alone or after 20 min with 20 nM PLK-1(KD) or PLK-1(CA); dimers seen down to 10 nM.

B1: SPD-5(541–677) (domain or fragment, C. elegans, UniProt P91349 541-677, looked up)
chain: SQSHIPILHDMQQILDSSAMFLEGQHDVAVNVEQMQEKMSQIREALARLFERLKSSAALFEEILERMGSSDPNADKIKKMKLAFETSINDKLNVSAILEAAEKDLHNMSLNFSILEKSIVSQAAEASRRFTIAPDAE
notes: Used alone and after incubation with kinase-dead PLK-1 (unphosphorylated); also called helical hairpin; source: Arctic Express bacteria, purified (Ni-NTA, Superdex 75 size exclusion)
As usually defined, the stoichiometry N is the number of molecules, sites or subunits per partner or assembly. For B1, the “stoichiometry N” value amounted to 2.

B2: SPD-5(541–677) phosphorylated by PLK-1(CA) (domain or fragment, C. elegans, UniProt P91349 541-677, looked up)
chain: B1 chain
modifications: phosphorylated by PLK-1 (verified by gel migration shift and MS); sites of this sample not listed in the text
notes: also called phosphorylated hairpin; source: Arctic Express bacteria, purified (Ni-NTA, Superdex 75 size exclusion); then incubated with PLK-1(CA)
With B2, the “stoichiometry N” value was determined as 2.

B3: SPD-5(541–677) R592K (domain or fragment, C. elegans, UniProt P91349 541-677, looked up)
chain: B1 chain with R52K
notes: source: purified
With B3, the “stoichiometry N” value turned out to be 2.
